The results in this text go back to US20210063414A1, “METHODS FOR PREVENTING AND/OR TREATING BONE LOSS CONDITIONS BY MODULATING IRISIN” (Dana-Farber Cancer Institute, Inc., priority 2018, published 2021).

In this assay the target is T1, MLO-Y4 cell surface proteins (Mus musculus, UniProt P63038).
T1 construct: endogenous in cells; host or cells: MLO-Y4
Briefly: Crosslinking/co-immunoprecipitation/mass spectrometry (TMT quantitative proteomics) to identify irisin receptors. The class given is binding. The conditions noted are these: co-precipitated protein Hspd1 (CH60_MOUSE). Put shortly: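 Relative protein abundance came from 6-plex TMT MS3 quantitation on an Orbitrap Fusion Lumos, after in-gel trypsin digestion of Coomassie-stained SDS-PAGE lanes. Input was a Ni-NTA pulldown (250 mM imidazole elution) of lysates from murine MLO-Y4 cells. These cells were treated on ice with His-tagged irisin or adipsin (10 nM, 20 min) in serum-free medium, then crosslinked with 1.5 mM DTSSP for 30 min.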

T1 sequence (P63038 27-573): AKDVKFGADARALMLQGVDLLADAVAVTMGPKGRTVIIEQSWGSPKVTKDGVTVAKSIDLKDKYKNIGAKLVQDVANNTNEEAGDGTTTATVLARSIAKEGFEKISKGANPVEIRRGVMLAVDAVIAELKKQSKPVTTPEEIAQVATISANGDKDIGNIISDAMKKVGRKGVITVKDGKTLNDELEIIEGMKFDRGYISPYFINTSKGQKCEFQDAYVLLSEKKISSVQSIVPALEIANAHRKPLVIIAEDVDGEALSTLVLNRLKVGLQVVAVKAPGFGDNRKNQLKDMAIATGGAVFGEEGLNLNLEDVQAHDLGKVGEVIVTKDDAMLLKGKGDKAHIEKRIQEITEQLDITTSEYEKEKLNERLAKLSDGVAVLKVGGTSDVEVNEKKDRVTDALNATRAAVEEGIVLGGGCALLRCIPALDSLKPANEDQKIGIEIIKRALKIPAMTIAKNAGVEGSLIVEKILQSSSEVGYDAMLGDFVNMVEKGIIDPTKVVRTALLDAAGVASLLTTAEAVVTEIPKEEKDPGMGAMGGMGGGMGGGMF

B1: irisin: secreted cleaved form of FNDC5; recombinant human/mouse irisin with C-terminal his tag produced in HEK293 cells (protein)
chain: DSPSAPVNVTVRHLKANSAVVSWDVLEDEVVIGFAISQQKKDVRMLRFIQEVNTTTRSCALWDLEEDTEYIVHVQAISIQGQSPASEPVLFKTPREAEKMASKNKDEVTMKE
modifications: left off: small tags and cut ends
notes: secreted cleaved form of FNDC5; recombinant human/mouse irisin with C-terminal his tag produced in HEK293 cells
As for B1, the TMT signal-to-noise ratio is listed as 2002.08 and the “irisin/adipsin TMT signal-to-noise ratio” value is on record as 0.470.
